Sequences and labels used below:
B1: N-alpha-[(S)-4-Carboxy-4-(19-carboxynonadecanoylamino)butyryl]-Gly-[Arg1,Glu14,Arg17,Pro37]-pramlintide (peptide)
peptide: {C20 diacid-γGlu}-GRCNTATCATQRLAEFLRHSSNNFGPILPPTNVGSNTP-NH2
modifications: disulfide 3-8
SMILES: CC[C@H](C)[C@H](NC(=O)[C@@H]1CCCN1C(=O)CNC(=O)[C@H](Cc1ccccc1)NC(=O)[C@H](CC(N)=O)NC(=O)[C@H](CC(N)=O)NC(=O)[C@H](CO)NC(=O)[C@H](CO)NC(=O)[C@H](Cc1c[nH]cn1)NC(=O)[C@H](CCCNC(=N)N)NC(=O)[C@H](CC(C)C)NC(=O)[C@H](Cc1ccccc1)NC(=O)[C@H](CCC(=O)O)NC(=O)[C@H](C)NC(=O)[C@H](CC(C)C)NC(=O)[C@H](CCCNC(=N)N)NC(=O)[C@H](CCC(N)=O)NC(=O)[C@@H](NC(=O)[C@H](C)NC(=O)[C@@H]1CSSC[C@H](NC(=O)[C@H](CCCNC(=N)N)NC(=O)CNC(=O)CC[C@H](NC(=O)CCCCCCCCCCCCCCCCCCC(=O)O)C(=O)O)C(=O)N[C@@H](CC(N)=O)C(=O)N[C@@H]([C@@H](C)O)C(=O)N[C@@H](C)C(=O)N[C@@H]([C@@H](C)O)C(=O)N1)[C@@H](C)O)C(=O)N[C@@H](CC(C)C)C(=O)N1CCC[C@H]1C(=O)N1CCC[C@H]1C(=O)N[C@H](C(=O)N[C@@H](CC(N)=O)C(=O)N[C@H](C(=O)NCC(=O)N[C@@H](CO)C(=O)N[C@@H](CC(N)=O)C(=O)N[C@H](C(=O)N1CCC[C@H]1C(N)=O)[C@@H](C)O)C(C)C)[C@@H](C)O
B2: N-alpha-[(S)-4-Carboxy-4-(19-carboxynonadecanoylamino)butyryl]-[Lys11,Glu14,His17,Pro37]-pramlintide (peptide)
peptide: {C20 diacid-γGlu}-KCNTATCATQKLAEFLHHSSNNFGPILPPTNVGSNTP-NH2
modifications: disulfide 2-7
SMILES: CC[C@H](C)[C@H](NC(=O)[C@@H]1CCCN1C(=O)CNC(=O)[C@H](Cc1ccccc1)NC(=O)[C@H](CC(N)=O)NC(=O)[C@H](CC(N)=O)NC(=O)[C@H](CO)NC(=O)[C@H](CO)NC(=O)[C@H](Cc1c[nH]cn1)NC(=O)[C@H](Cc1c[nH]cn1)NC(=O)[C@H](CC(C)C)NC(=O)[C@H](Cc1ccccc1)NC(=O)[C@H](CCC(=O)O)NC(=O)[C@H](C)NC(=O)[C@H](CC(C)C)NC(=O)[C@H](CCCCN)NC(=O)[C@H](CCC(N)=O)NC(=O)[C@@H](NC(=O)[C@H](C)NC(=O)[C@@H]1CSSC[C@H](NC(=O)[C@H](CCCCN)NC(=O)CC[C@H](NC(=O)CCCCCCCCCCCCCCCCCCC(=O)O)C(=O)O)C(=O)N[C@@H](CC(N)=O)C(=O)N[C@@H]([C@@H](C)O)C(=O)N[C@@H](C)C(=O)N[C@@H]([C@@H](C)O)C(=O)N1)[C@@H](C)O)C(=O)N[C@@H](CC(C)C)C(=O)N1CCC[C@H]1C(=O)N1CCC[C@H]1C(=O)N[C@H](C(=O)N[C@@H](CC(N)=O)C(=O)N[C@H](C(=O)NCC(=O)N[C@@H](CO)C(=O)N[C@@H](CC(N)=O)C(=O)N[C@H](C(=O)N1CCC[C@H]1C(N)=O)[C@@H](C)O)C(C)C)[C@@H](C)O
B3: N-alpha-[(S)-4-Carboxy-4-(19-carboxynonadecanoylamino)butyryl]-[Glu14,His17,Thr21,Pro37]-pramlintide (peptide)
peptide: {C20 diacid-γGlu}-KCNTATCATQRLAEFLHHSSTNFGPILPPTNVGSNTP-NH2
modifications: disulfide 2-7
SMILES: CC[C@H](C)[C@H](NC(=O)[C@@H]1CCCN1C(=O)CNC(=O)[C@H](Cc1ccccc1)NC(=O)[C@H](CC(N)=O)NC(=O)[C@@H](NC(=O)[C@H](CO)NC(=O)[C@H](CO)NC(=O)[C@H](Cc1c[nH]cn1)NC(=O)[C@H](Cc1c[nH]cn1)NC(=O)[C@H](CC(C)C)NC(=O)[C@H](Cc1ccccc1)NC(=O)[C@H](CCC(=O)O)NC(=O)[C@H](C)NC(=O)[C@H](CC(C)C)NC(=O)[C@H](CCCNC(=N)N)NC(=O)[C@H](CCC(N)=O)NC(=O)[C@@H](NC(=O)[C@H](C)NC(=O)[C@@H]1CSSC[C@H](NC(=O)[C@H](CCCCN)NC(=O)CC[C@H](NC(=O)CCCCCCCCCCCCCCCCCCC(=O)O)C(=O)O)C(=O)N[C@@H](CC(N)=O)C(=O)N[C@@H]([C@@H](C)O)C(=O)N[C@@H](C)C(=O)N[C@@H]([C@@H](C)O)C(=O)N1)[C@@H](C)O)[C@@H](C)O)C(=O)N[C@@H](CC(C)C)C(=O)N1CCC[C@H]1C(=O)N1CCC[C@H]1C(=O)N[C@H](C(=O)N[C@@H](CC(N)=O)C(=O)N[C@H](C(=O)NCC(=O)N[C@@H](CO)C(=O)N[C@@H](CC(N)=O)C(=O)N[C@H](C(=O)N1CCC[C@H]1C(N)=O)[C@@H](C)O)C(C)C)[C@@H](C)O
B4: N-epsilon1-[(S)-4-Carboxy-4-(19-carboxynonadecanoylamino)butyryl]-[Glu14,His17,Gln21,Ala25,Pro26,Ser28,Ser29,Pro37]-pramlintide (peptide)
peptide: K([γGlu-C20 diacid])CNTATCATQRLAEFLHHSSQNFGAPLSSTNVGSNTP-NH2
modifications: disulfide 2-7; N-terminus assumed
SMILES: CC(C)C[C@H](NC(=O)[C@H](CCCNC(=N)N)NC(=O)[C@H](CCC(N)=O)NC(=O)[C@@H](NC(=O)[C@H](C)NC(=O)[C@@H]1CSSC[C@H](NC(=O)[C@@H](N)CCCCNC(=O)CC[C@H](NC(=O)CCCCCCCCCCCCCCCCCCC(=O)O)C(=O)O)C(=O)N[C@@H](CC(N)=O)C(=O)N[C@@H]([C@@H](C)O)C(=O)N[C@@H](C)C(=O)N[C@@H]([C@@H](C)O)C(=O)N1)[C@@H](C)O)C(=O)N[C@@H](C)C(=O)N[C@@H](CCC(=O)O)C(=O)N[C@@H](Cc1ccccc1)C(=O)N[C@@H](CC(C)C)C(=O)N[C@@H](Cc1c[nH]cn1)C(=O)N[C@@H](Cc1c[nH]cn1)C(=O)N[C@@H](CO)C(=O)N[C@@H](CO)C(=O)N[C@@H](CCC(N)=O)C(=O)N[C@@H](CC(N)=O)C(=O)N[C@@H](Cc1ccccc1)C(=O)NCC(=O)N[C@@H](C)C(=O)N1CCC[C@H]1C(=O)N[C@@H](CC(C)C)C(=O)N[C@@H](CO)C(=O)N[C@@H](CO)C(=O)N[C@H](C(=O)N[C@@H](CC(N)=O)C(=O)N[C@H](C(=O)NCC(=O)N[C@@H](CO)C(=O)N[C@@H](CC(N)=O)C(=O)N[C@H](C(=O)N1CCC[C@H]1C(N)=O)[C@@H](C)O)C(C)C)[C@@H](C)O
B5: N-alpha-[(S)-4-Carboxy-4-(19-carboxynonadecanoylamino)butyryl]-[Arg14,Arg17,Pro37]-pramlintide (peptide)
peptide: {C20 diacid-γGlu}-KCNTATCATQRLARFLRHSSNNFGPILPPTNVGSNTP-NH2
modifications: disulfide 2-7
SMILES: CC[C@H](C)[C@H](NC(=O)[C@@H]1CCCN1C(=O)CNC(=O)[C@H](Cc1ccccc1)NC(=O)[C@H](CC(N)=O)NC(=O)[C@H](CC(N)=O)NC(=O)[C@H](CO)NC(=O)[C@H](CO)NC(=O)[C@H](Cc1c[nH]cn1)NC(=O)[C@H](CCCNC(=N)N)NC(=O)[C@H](CC(C)C)NC(=O)[C@H](Cc1ccccc1)NC(=O)[C@H](CCCNC(=N)N)NC(=O)[C@H](C)NC(=O)[C@H](CC(C)C)NC(=O)[C@H](CCCNC(=N)N)NC(=O)[C@H](CCC(N)=O)NC(=O)[C@@H](NC(=O)[C@H](C)NC(=O)[C@@H]1CSSC[C@H](NC(=O)[C@H](CCCCN)NC(=O)CC[C@H](NC(=O)CCCCCCCCCCCCCCCCCCC(=O)O)C(=O)O)C(=O)N[C@@H](CC(N)=O)C(=O)N[C@@H]([C@@H](C)O)C(=O)N[C@@H](C)C(=O)N[C@@H]([C@@H](C)O)C(=O)N1)[C@@H](C)O)C(=O)N[C@@H](CC(C)C)C(=O)N1CCC[C@H]1C(=O)N1CCC[C@H]1C(=O)N[C@H](C(=O)N[C@@H](CC(N)=O)C(=O)N[C@H](C(=O)NCC(=O)N[C@@H](CO)C(=O)N[C@@H](CC(N)=O)C(=O)N[C@H](C(=O)N1CCC[C@H]1C(N)=O)[C@@H](C)O)C(C)C)[C@@H](C)O

Starred links: 1 amine or outer side, 2 acyl side, 3 side chain; linkers in the order of their positions; H or OH if unused. Positions of bridges follow the written chain, without caps; N, C: chain ends. Groups on a side chain read outwards from the residue. No end group written: not given here. *: point of attachment. C20 diacid = O=C(O)CCCCCCCCCCCCCCCCCCC(=O)*; γGlu = O=C(O)[C@H](CCC(=O)[*:2])N[*:1]; AEEA = NCCOCCOCC(=O)O

The first assay addresses T1, human calcitonin (a) receptor (human, UniProt P30988 25-474).
T1 sequence (looked up): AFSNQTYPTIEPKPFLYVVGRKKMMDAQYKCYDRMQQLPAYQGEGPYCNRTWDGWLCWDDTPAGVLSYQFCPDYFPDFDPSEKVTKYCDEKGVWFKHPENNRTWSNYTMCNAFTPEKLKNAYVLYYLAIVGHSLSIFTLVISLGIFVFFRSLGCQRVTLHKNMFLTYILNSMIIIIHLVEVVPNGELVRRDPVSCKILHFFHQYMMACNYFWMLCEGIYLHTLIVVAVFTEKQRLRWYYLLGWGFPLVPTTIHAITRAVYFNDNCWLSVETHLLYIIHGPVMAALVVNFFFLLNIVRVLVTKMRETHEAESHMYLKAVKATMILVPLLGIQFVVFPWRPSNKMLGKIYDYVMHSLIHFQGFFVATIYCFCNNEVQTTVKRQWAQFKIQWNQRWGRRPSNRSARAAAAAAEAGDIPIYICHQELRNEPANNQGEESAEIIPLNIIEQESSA
The assay can be described thus: cell-based or functional assay.
As for B1, the “CTa receptor human EC50” value came to 0.041 nM.
Still for that read-out and setting: the same measure for B2: 0.083 nM; for KCNTATCATQRLAEFLHHSSK([AEEA-AEEA-γGlu-19‑carboxyheptadecanoyl])NFGPILSSTNVGSHTY-NH2 (disulfide 2-7): 0.319 nM.
The same measure, in the same setting: under B3 stands 0.0595 nM; under KCNTATCATQRLAEFLVHSSK([AEEA-AEEA-γGlu-19‑carboxyheptadecanoyl])NFGPILSRTNVGSHTY-NH2 (disulfide 2-7), 0.229 nM; under KCNTATCATQRLAEFLVRSSK([AEEA-AEEA-γGlu-19‑carboxyheptadecanoyl])NFGPILSRTNVGSRTY-NH2 (disulfide 2-7), 0.732 nM.
Regarding B4, the “CTa receptor human EC50” value is 0.0675 nM.
With B5, the “CTa receptor human EC50” value worked out at 0.453 nM.

The target in a further assay is T2, human amylin 3(a) receptor (human calcitonin receptor + RAMP-3) (human, UniProt P30988 25-474; O60896 24-148).
T2 sequence (looked up) 1: T1 sequence (looked up)
T2 sequence (looked up) 2: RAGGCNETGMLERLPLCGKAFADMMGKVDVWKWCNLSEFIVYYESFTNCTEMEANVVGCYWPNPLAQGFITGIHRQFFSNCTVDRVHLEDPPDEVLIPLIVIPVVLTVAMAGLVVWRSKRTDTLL
The assay can be described thus: cell-based or functional assay.
B1: the “Amylin receptor human EC50” value amounted to 0.043 nM.
Still for that read-out and setting: the same measure for B2: 0.0805 nM; for KCNTATCATQRLAEFLHHSSK([AEEA-AEEA-γGlu-19‑carboxyheptadecanoyl])NFGPILSSTNVGSHTY-NH2 (disulfide 2-7): 1.03 nM; for B3: 0.091 nM.
The same measure, in the same setting: under KCNTATCATQRLAEFLVHSSK([AEEA-AEEA-γGlu-19‑carboxyheptadecanoyl])NFGPILSRTNVGSHTY-NH2 (disulfide 2-7) stands 0.54 nM; under KCNTATCATQRLAEFLVRSSK([AEEA-AEEA-γGlu-19‑carboxyheptadecanoyl])NFGPILSRTNVGSRTY-NH2 (disulfide 2-7), 0.344 nM.
On the same count and under the same terms, the same measure for B4: 0.209 nM.
Take B5: the “Amylin receptor human EC50” value was determined as 0.129 nM.

(Values after patent US20130005646A1 (Novo Nordisk, published 2013).)
